System: Escherichia coli TOP10
Assay: shrunken log2 fold change of peptide-encoding DNA abundance (4.5 h post-induction vs induction); higher = less antimicrobial activity (less host growth inhibition)
Details: time post-induction: 4.5 h; library: site-saturation at positions 5, 18, 19, 20
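Further: peptides expressed intracellularly from a pBAD plasmid library in pooled LB shake-flask culture, induced with 0.3% L-arabinose, DNA abundance read by NGS, three biological replicates, DESeq2 with apeglm shrinkage.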

RRIRGRPPRLPRPRPRPHVEPRP
shrunken log2 fold change: 0.36

RRIRGRPPRLPRPRPRPHVFPRP
shrunken log2 fold change: 0.162

RRIRGRPPRLPRPRPRPHYGPRP
shrunken log2 fold change: -0.627

RRIRGRPPRLPRPRPRPHYMPRP
shrunken log2 fold change: 0.00569

RRIRGRPPRLPRPRPRPIAAPRP
shrunken log2 fold change: 2.9

RRIRGRPPRLPRPRPRPIANPRP
shrunken log2 fold change: 0.42

RRIRGRPPRLPRPRPRPIATPRP
shrunken log2 fold change: 3

RRIRGRPPRLPRPRPRPICPPRP
shrunken log2 fold change: 0.114

RRIRGRPPRLPRPRPRPIDCPRP
shrunken log2 fold change: -0.00142

RRIRGRPPRLPRPRPRPIDPPRP
shrunken log2 fold change: -0.0473

RRIRGRPPRLPRPRPRPIFFPRP
shrunken log2 fold change: 0.237

RRIRGRPPRLPRPRPRPIFPPRP
shrunken log2 fold change: 0.553

RRIRGRPPRLPRPRPRPIGEPRP
shrunken log2 fold change: 0.187

RRIRGRPPRLPRPRPRPIIDPRP
shrunken log2 fold change: 0.859

RRIRGRPPRLPRPRPRPIITPRP
shrunken log2 fold change: -0.0865

RRIRGRPPRLPRPRPRPIKFPRP
shrunken log2 fold change: 0.211

RRIRGRPPRLPRPRPRPIKNPRP
shrunken log2 fold change: 0.488

RRIRGRPPRLPRPRPRPIKYPRP
shrunken log2 fold change: 0.00555

RRIRGRPPRLPRPRPRPILNPRP
shrunken log2 fold change: -0.0611

RRIRGRPPRLPRPRPRPINLPRP
shrunken log2 fold change: -0.0974

RRIRGRPPRLPRPRPRPIQGPRP
shrunken log2 fold change: -0.0132

RRIRGRPPRLPRPRPRPIQYPRP
shrunken log2 fold change: -0.0751

RRIRGRPPRLPRPRPRPIRHPRP
shrunken log2 fold change: 0.0519

RRIRGRPPRLPRPRPRPIRSPRP
shrunken log2 fold change: -0.0333

RRIRGRPPRLPRPRPRPISQPRP
shrunken log2 fold change: 0.135

RRIRGRPPRLPRPRPRPITPPRP
shrunken log2 fold change: -0.0185

RRIRGRPPRLPRPRPRPIVTPRP
shrunken log2 fold change: 0.583

RRIRGRPPRLPRPRPRPIWEPRP
shrunken log2 fold change: 0.019

RRIRGRPPRLPRPRPRPIYKPRP
shrunken log2 fold change: -0.071

RRIRGRPPRLPRPRPRPKASPRP
shrunken log2 fold change: 0.234

RRIRGRPPRLPRPRPRPKCMPRP
shrunken log2 fold change: 0.209

RRIRGRPPRLPRPRPRPKDHPRP
shrunken log2 fold change: 0.465

RRIRGRPPRLPRPRPRPKEEPRP
shrunken log2 fold change: 1.58

RRIRGRPPRLPRPRPRPKEPPRP
shrunken log2 fold change: 0.875

RRIRGRPPRLPRPRPRPKFHPRP
shrunken log2 fold change: 0.199

RRIRGRPPRLPRPRPRPKFLPRP
shrunken log2 fold change: 0.267

RRIRGRPPRLPRPRPRPKGNPRP
shrunken log2 fold change: 0.598

RRIRGRPPRLPRPRPRPKGSPRP
shrunken log2 fold change: 1.03

RRIRGRPPRLPRPRPRPKHPPRP
shrunken log2 fold change: 0.608

RRIRGRPPRLPRPRPRPKIYPRP
shrunken log2 fold change: 0.000217

RRIRGRPPRLPRPRPRPKKNPRP
shrunken log2 fold change: 0.778

RRIRGRPPRLPRPRPRPKKQPRP
shrunken log2 fold change: 0.0981

RRIRGRPPRLPRPRPRPKKSPRP
shrunken log2 fold change: 0.834

RRIRGRPPRLPRPRPRPKKWPRP
shrunken log2 fold change: -0.00138

RRIRGRPPRLPRPRPRPKLAPRP
shrunken log2 fold change: 1.67

RRIRGRPPRLPRPRPRPKMWPRP
shrunken log2 fold change: 0.868

RRIRGRPPRLPRPRPRPKNNPRP
shrunken log2 fold change: 0.198

RRIRGRPPRLPRPRPRPKPAPRP
shrunken log2 fold change: 1.42

RRIRGRPPRLPRPRPRPKPDPRP
shrunken log2 fold change: 1.11

RRIRGRPPRLPRPRPRPKRMPRP
shrunken log2 fold change: 0.675

RRIRGRPPRLPRPRPRPKSQPRP
shrunken log2 fold change: 0.556

RRIRGRPPRLPRPRPRPKVDPRP
shrunken log2 fold change: 3.36

RRIRGRPPRLPRPRPRPKVMPRP
shrunken log2 fold change: 0.696

RRIRGRPPRLPRPRPRPKVPPRP
shrunken log2 fold change: 0.447

RRIRGRPPRLPRPRPRPKWAPRP
shrunken log2 fold change: 0.155

RRIRGRPPRLPRPRPRPKWVPRP
shrunken log2 fold change: 0.233

RRIRGRPPRLPRPRPRPLCEPRP
shrunken log2 fold change: 1.22

RRIRGRPPRLPRPRPRPLFFPRP
shrunken log2 fold change: 0.415

RRIRGRPPRLPRPRPRPLFWPRP
shrunken log2 fold change: 0.544

RRIRGRPPRLPRPRPRPLGKPRP
shrunken log2 fold change: 0.362

RRIRGRPPRLPRPRPRPLHTPRP
shrunken log2 fold change: 0.851

RRIRGRPPRLPRPRPRPLINPRP
shrunken log2 fold change: 0.116

RRIRGRPPRLPRPRPRPLIQPRP
shrunken log2 fold change: 0.827

RRIRGRPPRLPRPRPRPLKEPRP
shrunken log2 fold change: 0.343

RRIRGRPPRLPRPRPRPLKGPRP
shrunken log2 fold change: -0.117

RRIRGRPPRLPRPRPRPLLFPRP
shrunken log2 fold change: 0.873

RRIRGRPPRLPRPRPRPLLWPRP
shrunken log2 fold change: 0.896

RRIRGRPPRLPRPRPRPLNQPRP
shrunken log2 fold change: 0.725

RRIRGRPPRLPRPRPRPLPDPRP
shrunken log2 fold change: 0.926

RRIRGRPPRLPRPRPRPLQMPRP
shrunken log2 fold change: 2.6

RRIRGRPPRLPRPRPRPLRCPRP
shrunken log2 fold change: 0.58

RRIRGRPPRLPRPRPRPLRNPRP
shrunken log2 fold change: 1.03

RRIRGRPPRLPRPRPRPLRRPRP
shrunken log2 fold change: 1.54

RRIRGRPPRLPRPRPRPLSMPRP
shrunken log2 fold change: 1.34

RRIRGRPPRLPRPRPRPLSWPRP
shrunken log2 fold change: 0.781

RRIRGRPPRLPRPRPRPLVDPRP
shrunken log2 fold change: 1.1

RRIRGRPPRLPRPRPRPLYWPRP
shrunken log2 fold change: -0.169

RRIRGRPPRLPRPRPRPMAPPRP
shrunken log2 fold change: 1.2

RRIRGRPPRLPRPRPRPMCHPRP
shrunken log2 fold change: 0.874

RRIRGRPPRLPRPRPRPMDNPRP
shrunken log2 fold change: 0.12

RRIRGRPPRLPRPRPRPMFSPRP
shrunken log2 fold change: 0.147

RRIRGRPPRLPRPRPRPMGSPRP
shrunken log2 fold change: -0.0284

RRIRGRPPRLPRPRPRPMHDPRP
shrunken log2 fold change: 0.361

RRIRGRPPRLPRPRPRPMHWPRP
shrunken log2 fold change: 0.382

RRIRGRPPRLPRPRPRPMKWPRP
shrunken log2 fold change: 3.42

RRIRGRPPRLPRPRPRPMMLPRP
shrunken log2 fold change: 0.158

RRIRGRPPRLPRPRPRPMMRPRP
shrunken log2 fold change: 1.01

RRIRGRPPRLPRPRPRPMNIPRP
shrunken log2 fold change: 0.127

RRIRGRPPRLPRPRPRPMNYPRP
shrunken log2 fold change: 0.00834

RRIRGRPPRLPRPRPRPMPCPRP
shrunken log2 fold change: 0.104

RRIRGRPPRLPRPRPRPMPEPRP
shrunken log2 fold change: 0.226

RRIRGRPPRLPRPRPRPMPMPRP
shrunken log2 fold change: 0.352

RRIRGRPPRLPRPRPRPMRNPRP
shrunken log2 fold change: 1.09

RRIRGRPPRLPRPRPRPMRRPRP
shrunken log2 fold change: 1.25

RRIRGRPPRLPRPRPRPMRSPRP
shrunken log2 fold change: 0.64

RRIRGRPPRLPRPRPRPMSGPRP
shrunken log2 fold change: 0.0585

RRIRGRPPRLPRPRPRPMSSPRP
shrunken log2 fold change: -0.154

RRIRGRPPRLPRPRPRPMTRPRP
shrunken log2 fold change: 0.519

RRIRGRPPRLPRPRPRPMTWPRP
shrunken log2 fold change: 0.17

RRIRGRPPRLPRPRPRPMVQPRP
shrunken log2 fold change: 0.0883

RRIRGRPPRLPRPRPRPMYIPRP
shrunken log2 fold change: -0.396

RRIRGRPPRLPRPRPRPMYYPRP
shrunken log2 fold change: 0.197

RRIRGRPPRLPRPRPRPNAMPRP
shrunken log2 fold change: 0.988

RRIRGRPPRLPRPRPRPNAWPRP
shrunken log2 fold change: 0.728

RRIRGRPPRLPRPRPRPNCAPRP
shrunken log2 fold change: 0.811

RRIRGRPPRLPRPRPRPNCCPRP
shrunken log2 fold change: 0.245

RRIRGRPPRLPRPRPRPNCKPRP
shrunken log2 fold change: 0.21

RRIRGRPPRLPRPRPRPNCVPRP
shrunken log2 fold change: 0.543

RRIRGRPPRLPRPRPRPNDLPRP
shrunken log2 fold change: 0.338

RRIRGRPPRLPRPRPRPNDWPRP
shrunken log2 fold change: 0.235

RRIRGRPPRLPRPRPRPNEMPRP
shrunken log2 fold change: 0.703

RRIRGRPPRLPRPRPRPNFQPRP
shrunken log2 fold change: 0.122

RRIRGRPPRLPRPRPRPNFRPRP
shrunken log2 fold change: -0.00192

RRIRGRPPRLPRPRPRPNFYPRP
shrunken log2 fold change: 0.22

RRIRGRPPRLPRPRPRPNGDPRP
shrunken log2 fold change: 0.115

RRIRGRPPRLPRPRPRPNGQPRP
shrunken log2 fold change: 0.386

RRIRGRPPRLPRPRPRPNGSPRP
shrunken log2 fold change: -0.0904

RRIRGRPPRLPRPRPRPNHIPRP
shrunken log2 fold change: -0.444

RRIRGRPPRLPRPRPRPNHKPRP
shrunken log2 fold change: -0.195

RRIRGRPPRLPRPRPRPNHQPRP
shrunken log2 fold change: 0.0643

RRIRGRPPRLPRPRPRPNHTPRP
shrunken log2 fold change: -0.144

RRIRGRPPRLPRPRPRPNIEPRP
shrunken log2 fold change: 0.51

RRIRGRPPRLPRPRPRPNIMPRP
shrunken log2 fold change: 0.0649

RRIRGRPPRLPRPRPRPNKFPRP
shrunken log2 fold change: -0.106

RRIRGRPPRLPRPRPRPNMIPRP
shrunken log2 fold change: 0.0819

RRIRGRPPRLPRPRPRPNNEPRP
shrunken log2 fold change: 0.306

RRIRGRPPRLPRPRPRPNNPPRP
shrunken log2 fold change: -0.171

RRIRGRPPRLPRPRPRPNQCPRP
shrunken log2 fold change: 0.0163

RRIRGRPPRLPRPRPRPNQEPRP
shrunken log2 fold change: 0.389

RRIRGRPPRLPRPRPRPNRKPRP
shrunken log2 fold change: 0.195

RRIRGRPPRLPRPRPRPNSPPRP
shrunken log2 fold change: -0.0974

RRIRGRPPRLPRPRPRPNSRPRP
shrunken log2 fold change: 0.107

RRIRGRPPRLPRPRPRPNTHPRP
shrunken log2 fold change: 0.102

RRIRGRPPRLPRPRPRPNVAPRP
shrunken log2 fold change: 1.15

RRIRGRPPRLPRPRPRPNVGPRP
shrunken log2 fold change: 0.125

RRIRGRPPRLPRPRPRPNWDPRP
shrunken log2 fold change: 0.738

RRIRGRPPRLPRPRPRPPAMPRP
shrunken log2 fold change: 1.23

RRIRGRPPRLPRPRPRPPCKPRP
shrunken log2 fold change: 0.339

RRIRGRPPRLPRPRPRPPDCPRP
shrunken log2 fold change: 1.28

RRIRGRPPRLPRPRPRPPIEPRP
shrunken log2 fold change: 0.196

RRIRGRPPRLPRPRPRPPNGPRP
shrunken log2 fold change: 0.534

RRIRGRPPRLPRPRPRPPNLPRP
shrunken log2 fold change: 0.463

RRIRGRPPRLPRPRPRPPQKPRP
shrunken log2 fold change: 1.35

RRIRGRPPRLPRPRPRPPQPPRP
shrunken log2 fold change: 1.03

RRIRGRPPRLPRPRPRPPQRPRP
shrunken log2 fold change: 0.97

RRIRGRPPRLPRPRPRPPRPPRP
shrunken log2 fold change: 1.08

RRIRGRPPRLPRPRPRPPSCPRP
shrunken log2 fold change: 0.654

RRIRGRPPRLPRPRPRPPSDPRP
shrunken log2 fold change: 1.05

RRIRGRPPRLPRPRPRPPTAPRP
shrunken log2 fold change: 1.01

RRIRGRPPRLPRPRPRPPTMPRP
shrunken log2 fold change: 0.429
